Measurements: patent EP4574844A1 (Numab Therapeutics AG, dated 2025)
Read-outs that look alike come from different tables or passages of the source.

T1: Fc-tagged human PDL2 (human, UniProt Q9BQ51 20-220, limits assumed)
T1 sequence (looked up): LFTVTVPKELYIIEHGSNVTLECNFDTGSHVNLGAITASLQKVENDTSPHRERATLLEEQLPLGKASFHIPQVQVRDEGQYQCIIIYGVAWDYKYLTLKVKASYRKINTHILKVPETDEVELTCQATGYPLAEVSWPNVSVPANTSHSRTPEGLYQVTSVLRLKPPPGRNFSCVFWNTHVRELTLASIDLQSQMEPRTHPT


Tests used:
[1] = molecular target: T2, recombinant human LILRB2 (human, UniProt Q8N423 22-460, limits assumed); assay: SPR, LILRB2 immobilised, scFv as analyte
T2 construct: also called ILT4
T2 sequence (Q8N423 22-460 limits assumed): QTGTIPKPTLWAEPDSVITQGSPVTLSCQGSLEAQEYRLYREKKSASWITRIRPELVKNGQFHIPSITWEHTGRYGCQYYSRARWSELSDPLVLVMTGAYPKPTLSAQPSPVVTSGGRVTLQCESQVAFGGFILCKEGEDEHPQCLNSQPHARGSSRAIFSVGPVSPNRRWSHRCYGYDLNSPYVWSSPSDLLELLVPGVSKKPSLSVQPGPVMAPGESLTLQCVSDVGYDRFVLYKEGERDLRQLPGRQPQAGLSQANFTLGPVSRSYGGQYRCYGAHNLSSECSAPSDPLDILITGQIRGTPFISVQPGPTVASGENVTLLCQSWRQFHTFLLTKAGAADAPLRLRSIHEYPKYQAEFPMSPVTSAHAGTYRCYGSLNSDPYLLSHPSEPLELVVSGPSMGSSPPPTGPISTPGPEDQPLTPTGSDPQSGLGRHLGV

[2] = molecular target: T3, human LILRB2 on the cell surface (human, UniProt Q8N423 22-597); assay: flow cytometry, CHO K1 cells expressing human LILRB2
T3 construct: whole, on cells; also called CHO K1 cells expressing human LILRB2; LILRB2 on HMDMs
T3 sequence (Q8N423 22-597): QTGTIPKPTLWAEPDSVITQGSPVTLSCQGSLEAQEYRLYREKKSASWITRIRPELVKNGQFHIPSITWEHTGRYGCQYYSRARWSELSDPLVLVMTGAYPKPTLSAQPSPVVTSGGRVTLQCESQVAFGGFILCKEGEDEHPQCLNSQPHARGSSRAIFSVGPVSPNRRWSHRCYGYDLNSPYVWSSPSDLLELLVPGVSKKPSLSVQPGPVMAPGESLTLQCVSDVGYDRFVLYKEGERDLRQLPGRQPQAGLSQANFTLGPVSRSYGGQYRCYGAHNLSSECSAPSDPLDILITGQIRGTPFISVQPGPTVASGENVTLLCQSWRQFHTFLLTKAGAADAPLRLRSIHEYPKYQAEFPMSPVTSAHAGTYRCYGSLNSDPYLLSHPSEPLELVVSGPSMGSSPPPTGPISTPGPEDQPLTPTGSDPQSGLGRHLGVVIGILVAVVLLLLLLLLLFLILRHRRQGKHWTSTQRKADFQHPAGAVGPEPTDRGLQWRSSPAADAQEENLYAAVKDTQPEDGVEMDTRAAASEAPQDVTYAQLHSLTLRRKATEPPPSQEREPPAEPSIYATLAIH

[3] = molecular target: T3, human LILRB2 on the cell surface; assay: flow cytometry, CHO cells expressing LILRB2; competitor HLA-G tetramer
[4] = molecular target: T3, human LILRB2 on the cell surface; assay: flow cytometry, CHO cells expressing LILRB2; competitor HLA-A0301 dextramer
[5] = molecular target: T3, human LILRB2 on the cell surface; assay: flow cytometry, CHO cells expressing LILRB2; competitor HLA-G tetramer; reference PRO2518
[6] = molecular target: T3, human LILRB2 on the cell surface; assay: cell-based or functional assay
[7] = molecular target: T3, human LILRB2 on the cell surface; assay: cell-based or functional assay; remark: listed apart in the source
[8] = molecular target: T4, LILRA1 on transiently transfected CHO cells (UniProt O75019 17-489, limits assumed); assay: CELISA, transiently transfected CHO cells
T4 construct: whole, on cells; V5 tag at the N-terminus
T4 sequence (O75019 17-489 limits assumed): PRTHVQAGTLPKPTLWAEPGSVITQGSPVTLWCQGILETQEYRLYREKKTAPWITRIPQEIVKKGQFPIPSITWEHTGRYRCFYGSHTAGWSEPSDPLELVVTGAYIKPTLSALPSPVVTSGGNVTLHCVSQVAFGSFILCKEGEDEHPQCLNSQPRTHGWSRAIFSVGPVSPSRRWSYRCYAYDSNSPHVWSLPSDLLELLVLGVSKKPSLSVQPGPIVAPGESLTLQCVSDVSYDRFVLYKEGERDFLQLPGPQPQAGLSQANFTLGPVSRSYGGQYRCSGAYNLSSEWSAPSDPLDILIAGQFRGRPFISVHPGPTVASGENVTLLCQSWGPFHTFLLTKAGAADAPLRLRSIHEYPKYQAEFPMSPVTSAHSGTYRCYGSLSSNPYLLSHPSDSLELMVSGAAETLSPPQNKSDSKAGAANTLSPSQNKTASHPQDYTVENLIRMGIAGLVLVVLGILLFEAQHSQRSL

[9] = molecular target: T5, LILRA2 on transiently transfected CHO cells (UniProt Q8N149 24-483); assay: CELISA, transiently transfected CHO cells
T5 construct: whole, on cells; V5 tag at the N-terminus
T5 sequence (Q8N149 24-483): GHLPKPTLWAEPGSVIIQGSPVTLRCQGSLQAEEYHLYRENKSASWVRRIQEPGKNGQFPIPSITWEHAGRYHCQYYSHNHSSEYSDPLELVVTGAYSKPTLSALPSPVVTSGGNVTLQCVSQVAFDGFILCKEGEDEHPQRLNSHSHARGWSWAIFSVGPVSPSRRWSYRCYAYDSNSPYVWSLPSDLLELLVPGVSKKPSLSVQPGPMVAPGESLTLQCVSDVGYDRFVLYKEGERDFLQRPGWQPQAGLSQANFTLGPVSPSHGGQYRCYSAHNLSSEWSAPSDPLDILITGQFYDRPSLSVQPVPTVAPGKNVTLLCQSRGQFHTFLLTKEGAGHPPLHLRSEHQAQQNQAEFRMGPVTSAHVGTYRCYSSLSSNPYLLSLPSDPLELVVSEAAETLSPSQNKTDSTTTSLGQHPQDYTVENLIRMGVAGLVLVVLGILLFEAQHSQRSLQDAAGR

[10] = molecular target: T6, LILRA3 on transiently transfected CHO cells (UniProt Q8N6C8 24-439); assay: CELISA, transiently transfected CHO cells
T6 construct: whole, on cells; V5 tag at the N-terminus
T6 sequence (Q8N6C8 24-439): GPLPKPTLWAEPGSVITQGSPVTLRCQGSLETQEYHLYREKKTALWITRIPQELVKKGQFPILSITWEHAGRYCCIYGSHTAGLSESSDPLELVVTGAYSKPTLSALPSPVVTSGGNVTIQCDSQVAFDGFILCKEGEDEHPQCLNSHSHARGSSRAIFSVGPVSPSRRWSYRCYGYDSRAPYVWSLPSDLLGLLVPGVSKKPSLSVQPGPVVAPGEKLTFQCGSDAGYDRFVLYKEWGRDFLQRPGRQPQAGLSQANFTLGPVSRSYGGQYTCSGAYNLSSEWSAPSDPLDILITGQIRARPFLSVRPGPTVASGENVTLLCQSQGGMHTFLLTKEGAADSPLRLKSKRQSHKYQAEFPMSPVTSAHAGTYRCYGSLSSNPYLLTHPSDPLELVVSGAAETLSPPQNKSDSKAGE

[11] = molecular target: T7, LILRA4 on transiently transfected CHO cells (UniProt P59901 24-499); assay: CELISA, transiently transfected CHO cells
T7 construct: whole, on cells; V5 tag at the N-terminus
T7 sequence (P59901 24-499): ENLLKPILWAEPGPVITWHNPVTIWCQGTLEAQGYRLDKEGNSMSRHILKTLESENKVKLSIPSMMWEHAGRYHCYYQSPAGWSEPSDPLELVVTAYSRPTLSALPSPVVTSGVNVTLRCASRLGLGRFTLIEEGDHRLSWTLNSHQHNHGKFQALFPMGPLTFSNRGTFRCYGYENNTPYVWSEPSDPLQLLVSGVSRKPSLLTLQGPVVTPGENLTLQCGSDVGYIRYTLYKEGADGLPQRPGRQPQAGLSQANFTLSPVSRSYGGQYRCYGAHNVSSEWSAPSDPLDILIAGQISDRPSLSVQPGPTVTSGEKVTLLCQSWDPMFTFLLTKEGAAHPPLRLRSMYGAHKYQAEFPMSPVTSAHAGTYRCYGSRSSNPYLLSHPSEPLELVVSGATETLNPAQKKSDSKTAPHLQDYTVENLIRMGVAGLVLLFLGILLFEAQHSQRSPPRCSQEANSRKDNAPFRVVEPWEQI

[12] = molecular target: T8, LILRA5 on transiently transfected CHO cells (UniProt A6NI73 42-299); assay: CELISA, transiently transfected CHO cells
T8 construct: whole, on cells; V5 tag at the N-terminus
T8 sequence (A6NI73 42-299): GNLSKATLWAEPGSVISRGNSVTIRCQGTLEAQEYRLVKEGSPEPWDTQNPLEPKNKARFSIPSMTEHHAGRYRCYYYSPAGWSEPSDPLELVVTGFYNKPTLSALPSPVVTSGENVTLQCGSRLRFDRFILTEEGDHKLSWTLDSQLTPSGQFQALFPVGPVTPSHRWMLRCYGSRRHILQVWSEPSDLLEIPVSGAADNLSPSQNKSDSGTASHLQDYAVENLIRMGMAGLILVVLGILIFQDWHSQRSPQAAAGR

[13] = molecular target: T9, LILRA6 on transiently transfected CHO cells (UniProt Q6PI73 24-481); assay: CELISA, transiently transfected CHO cells
T9 construct: whole, on cells; V5 tag at the N-terminus
T9 sequence (Q6PI73 24-481): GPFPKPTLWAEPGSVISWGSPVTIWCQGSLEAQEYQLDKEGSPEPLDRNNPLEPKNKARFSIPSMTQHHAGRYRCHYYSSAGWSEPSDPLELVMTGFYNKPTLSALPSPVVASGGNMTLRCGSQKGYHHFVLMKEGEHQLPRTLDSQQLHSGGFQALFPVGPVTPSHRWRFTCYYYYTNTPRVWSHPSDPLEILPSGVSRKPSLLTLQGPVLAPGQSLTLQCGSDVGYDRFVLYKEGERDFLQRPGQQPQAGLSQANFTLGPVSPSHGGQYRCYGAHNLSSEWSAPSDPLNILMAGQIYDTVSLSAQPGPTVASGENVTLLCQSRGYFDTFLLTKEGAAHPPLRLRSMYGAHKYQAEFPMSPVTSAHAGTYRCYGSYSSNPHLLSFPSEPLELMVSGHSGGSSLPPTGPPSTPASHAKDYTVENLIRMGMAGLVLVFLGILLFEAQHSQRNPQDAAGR

[14] = molecular target: T10, LILRB1 on transiently transfected CHO cells (UniProt Q8NHL6 24-650); assay: CELISA, transiently transfected CHO cells
T10 construct: whole, on cells; V5 tag at the N-terminus
T10 sequence (Q8NHL6 24-650): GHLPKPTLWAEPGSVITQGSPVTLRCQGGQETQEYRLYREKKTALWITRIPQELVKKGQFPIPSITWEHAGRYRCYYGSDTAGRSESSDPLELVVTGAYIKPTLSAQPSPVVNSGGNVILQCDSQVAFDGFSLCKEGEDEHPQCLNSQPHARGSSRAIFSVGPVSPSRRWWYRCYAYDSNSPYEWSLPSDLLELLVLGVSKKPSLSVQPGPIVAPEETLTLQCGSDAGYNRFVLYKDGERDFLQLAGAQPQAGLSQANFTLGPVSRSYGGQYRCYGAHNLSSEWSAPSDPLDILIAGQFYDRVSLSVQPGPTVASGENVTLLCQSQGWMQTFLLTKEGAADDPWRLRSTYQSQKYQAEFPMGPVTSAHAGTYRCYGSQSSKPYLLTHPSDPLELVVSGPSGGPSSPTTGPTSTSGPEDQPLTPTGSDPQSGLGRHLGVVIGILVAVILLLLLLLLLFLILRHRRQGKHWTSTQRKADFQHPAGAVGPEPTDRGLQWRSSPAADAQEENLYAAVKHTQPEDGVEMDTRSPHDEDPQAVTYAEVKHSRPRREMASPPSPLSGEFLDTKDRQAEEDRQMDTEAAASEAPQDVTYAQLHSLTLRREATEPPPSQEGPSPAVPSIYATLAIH

[15] = molecular target: T11, LILRB3 on transiently transfected CHO cells (UniProt O75022 24-631, limits assumed); assay: CELISA, transiently transfected CHO cells
T11 construct: whole, on cells; V5 tag at the N-terminus

[16] = molecular target: T12, LILRB4 on transiently transfected CHO cells (UniProt Q8NHJ6 22-448); assay: CELISA, transiently transfected CHO cells
T12 construct: whole, on cells; V5 tag at the N-terminus

[17] = molecular target: T13, LILRB5 on transiently transfected CHO cells (UniProt O75023 24-590, limits assumed); assay: CELISA, transiently transfected CHO cells
T13 construct: whole, on cells; V5 tag at the N-terminus
T13 sequence (O75023 24-590 limits assumed): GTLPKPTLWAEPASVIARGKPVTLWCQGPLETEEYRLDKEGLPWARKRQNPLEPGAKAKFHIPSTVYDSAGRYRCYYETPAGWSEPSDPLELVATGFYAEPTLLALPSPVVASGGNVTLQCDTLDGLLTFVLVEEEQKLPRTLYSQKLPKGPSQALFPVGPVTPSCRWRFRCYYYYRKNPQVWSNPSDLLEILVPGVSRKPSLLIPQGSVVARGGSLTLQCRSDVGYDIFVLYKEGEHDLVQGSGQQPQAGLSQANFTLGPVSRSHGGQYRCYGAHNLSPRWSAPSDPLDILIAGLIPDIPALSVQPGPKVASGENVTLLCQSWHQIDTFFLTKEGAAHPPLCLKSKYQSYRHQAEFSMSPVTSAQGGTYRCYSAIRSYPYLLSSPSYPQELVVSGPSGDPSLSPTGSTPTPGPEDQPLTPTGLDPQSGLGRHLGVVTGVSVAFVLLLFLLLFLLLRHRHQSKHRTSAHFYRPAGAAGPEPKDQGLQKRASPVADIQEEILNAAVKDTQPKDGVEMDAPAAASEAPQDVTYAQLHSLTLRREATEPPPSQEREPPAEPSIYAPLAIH

[18] = molecular target: T14, human PD-L1 on the cell surface (human, UniProt Q9NZQ7 19-290); assay: cell-based or functional assay
[19] = molecular target: T15, human CD47 on the cell surface (human, UniProt Q08722 19-323); assay: cell-based or functional assay
[20] = molecular target: T14, human PD-L1 on the cell surface; assay: cell-based or functional assay; remark: listed apart in the source
[21] = molecular target: T15, human CD47 on the cell surface; assay: cell-based or functional assay; remark: listed apart in the source
[22] = molecular target: recombinant human CD47 (human, UniProt Q08722 19-139, limits assumed); assay: SPR, antigen immobilised, antibody as analyte
[23] = molecular target: T16, recombinant human PDL1 (human, UniProt Q9NZQ7 19-238, limits assumed); assay: SPR, antigen immobilised, antibody as analyte
T16 construct: SPR antigen; also called CD274; B7-H1

[24] = molecular target: T16, recombinant human PDL1; assay: SPR
[25] = molecular target: T17, recombinant cynomolgus PDL1 (cynomolgus monkey, UniProt G7PSE7 19-238); assay: SPR
T17 construct: also called cynom; PDL1
T17 sequence (G7PSE7 entry or part of it): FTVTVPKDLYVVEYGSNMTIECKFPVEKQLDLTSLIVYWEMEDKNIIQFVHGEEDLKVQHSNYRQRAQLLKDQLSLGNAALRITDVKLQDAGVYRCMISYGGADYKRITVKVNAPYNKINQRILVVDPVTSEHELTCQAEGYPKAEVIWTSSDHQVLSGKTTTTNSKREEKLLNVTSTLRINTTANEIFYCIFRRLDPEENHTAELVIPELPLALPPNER

[26] = molecular target: T14, human PD-L1 on the cell surface; assay: cell-based or functional assay; remark: listed apart in the source
[27] = molecular target: T1, Fc-tagged human PDL2; assay: SPR, Fc-tagged human PDL2 captured, scFv as analyte

| Kd [1] | koff [1] | kon [1] | EC50 [2] | IC50 [3] | IC50 [4] | Rel. max. inhibition % (rel. to J-19) [5] | Kd [24] | koff [24] | kon [24] | Kd [25] | koff [25] | kon [25] | PDL1/PD-1 EC50 [nM], NFAT reporter gene assay [26] | PDL1/PD-1 Max. inhibition (rel. to avelumab) [%] [26] | binding result [27] | Binder | other results |
| --- | --- | --- | --- | --- | --- | --- | --- | --- | --- | --- | --- | --- | --- | --- | --- | --- | --- |
| 148 pM | 0.000114 s⁻¹ | 771000 M⁻¹ s⁻¹ | 881 pM | 973 pM | 893 pM | 99.1% | – | – | – | – | – | – | – | – | – | PRO3744 (scFv, anti-LILRB2 scFv; also called 68-18-E11-sc07) scFv: DVQMTQSPSSLSASVGDRVTITCQASQSIGSNLAWYQQKPGKPPKLLIYKGGTLESGVPSRFSGSGSGTDFTLTISSLQPEDFATYYCQSTAGSSRSGNYGYVFGCGTKVTVLGGGGGSGGGGSGGGGSGGGGSQQLVESGGGLVQPGGSLRLSCAASGFSFTNNYYMCWVRQAPGKCLEWIACMLVGAWGNTYYASWANGRFTISKDNSKNTVYLQMNSLRAEDSAVYFCARARDYTWTLGGDPETSGFNLWGQGTLVKVSS | – |
| – | – | – | – | – | – | – | – | – | – | – | – | – | – | – | – | PRO4710 (antibody, human IgG4 S228P, kappa, V domains shown, anti-LILRB2 IgG4; also called 68-18-E11-sc07 IgG4; IgG4 variant of scFv PRO3744) VH: QQLVESGGGLVQPGGSLRLSCAASGFSFTNNYYMCWVRQAPGKGLEWIACMLVGAWGNTYYASWANGRFTISKDNSKNTVYLQMNSLRAEDTAVYFCARARDYTWTLGGDPETSGFNLWGQGTLVTVSS VL: DVQMTQSPSSLSASVGDRVTITCQASQSIGSNLAWYQQKPGKPPKLLIYKGGTLESGVPSRFSGSGSGTDFTLTISSLQPEDFATYYCQSTAGSSRSGNYGYVFGQGTKVEIKR | CD86 EC50 [nM], re-polarization of M2 macrophages [6]: 0.119 nM; CD163 EC50 [nM], re-polarization of M2 macrophages [6]: 0.072 nM; CD206 EC50 [nM], re-polarization of M2 macrophages [6]: 0.203 nM; IL-1β EC50 [nM], LPS-driven cytokine secretion [7]: 0.248 nM; IL-6 EC50 [nM], LPS-driven cytokine secretion [7]: 0.153 nM; TNF-α EC50 [nM], LPS-driven cytokine secretion [7]: 0.169 nM; binding result [8]: no binding (tested: up to 100 nM); binding result [9]: no binding (tested: up to 100 nM); binding result [10]: no binding (tested: up to 100 nM); binding result [11]: no binding (tested: up to 100 nM); binding result [12]: no binding (tested: up to 100 nM); binding result [13]: no binding (tested: up to 100 nM); binding result [14]: no binding (tested: up to 100 nM); binding result [15]: no binding (tested: up to 100 nM); binding result [16]: no binding (tested: up to 100 nM); binding result [17]: no binding (tested: up to 100 nM) |
| – | – | – | – | – | – | – | – | – | – | – | – | – | – | – | – | PRO5053 (antibody, anti-PDL1 x CD47 x (hSA dummy domain); also called PRO5052 with dummy domain for LILRB2-BD) chain 1: DVQMTQSPSSLSASVGDRVTITCQASQSISSWVSWYQQKPGKPPKLLIYRGGYLESGVPSRFSASGSGTDFTLTISSLQPEDFATYYCQSTDSSTYGGAFGCGTKVTVLGGGGGSGGGGSGGGGSGGGGSQQVVESGGGLVQPGGSLRLSCAVSGIDLNSYAMTWVRQAPGKCLEWIGYIGSASSTYYASWASGRFTISKDNSKNTVYLQMNSLRAEDSAVYFCARGSTYINIWGQGTLVKVSSEPKSSDKTHTCPPCPAPELLGGPSVFLFPPKPKDTLMISRTPEVTCVVVDVSHEDPEVKFNWYVDGVEVHNAKTKPREEQYNSTYRVVSVLTVLHQDWLNGKEYKCKVSNKALPAPIEKTISKAKGQPREPQVYTLPPCREEMTKNQVSLSCAVKGFYPSDIAVEWESNGQPENNYKTTPPVLDSDGSFFLVSKLTVDKSRWQQGNVFSCSVMHEALHNHYTQKSLSLSPGKGGGGSGGGGSDIQMTQSPSSLSASVGDRVTITCQSSESVYSNNQLSWYQQKPGQPPKLLIYDASDLASGVPSRFSGSGSGTDFTLTISSLQPEDFATYYCAGGFSSSSDTAFGCGTKLTVLGGGGGSGGGGSGGGGSGGGGSEVQLVESGGGLVQPGGSLRLSCAASGFSLSSNAMGWVRQAPGKCLEYIGIISVGGFTYYASWAKGRFTISRDNSKNTVYLQMNSLRAEDSATYFCARDRHGGDSSGAFYLWGQGTLVKVSS chain 2: not shown | PD-L1 driven EC50 [nM], phagocytosis of H292 cells [18]: 0.18 nM; CD47 driven EC50 [nM], phagocytosis of A375 cells [19]: 27.5 nM; CD47 driven EC50 [nM], phagocytosis of H292 cells [19]: 28.4 nM; PD-L1 driven EC50 [nM], phagocytosis of H292 cells [20]: 0.19 nM; CD47 driven EC50 [nM], phagocytosis of H292 cells [21]: 28.2 nM; Kd [22]: 49700 pM; koff [22]: 0.0265 s⁻¹; kon [22]: 533000 M⁻¹ s⁻¹; Kd [23]: 13.3 pM; koff [23]: 2.72e-05 s⁻¹; kon [23]: 2.05e+06 M⁻¹ s⁻¹ |
| 226 pM | 0.000166 s⁻¹ | 736000 M⁻¹ s⁻¹ | 796 pM | 1080 pM | 867 pM | 98.4% | – | – | – | – | – | – | – | – | – | PRO3696 (scFv, anti-LILRB2 scFv; also called 69-01-E02-sc06) scFv: DVQMTQSPSSLSASVGDRVTITCQASQSIGLNLAWYQQKPGKPPKLLIYAGGYLASGVSSRFSGSGSGTDFTLTISSLQPEDFATYYCQSTYDGSSFVFAFGTGTKVTVLGGGGGSGGGGSGGGGSGGGGSQEQLVESGGGLVQPGGSLRLSCAASGFSFSSSSYMCWVRQAPGKGLEWIACMVTGSSDDTDYASWAKGRFTISKDNSKNTVYLQMNSLRAEDSAVYFCARAGSAPLWGQGTLVKVSS | – |
| – | – | – | – | – | – | – | 10.9 pM | 6.64e-05 s⁻¹ | 7.38e+06 M⁻¹ s⁻¹ | 12.7 pM | 8.77e-05 s⁻¹ | 6.88e+06 M⁻¹ s⁻¹ | 0.28 nM | 100% | no binding (tested: 180 nM) | PRO1347 (scFv, anti-PDL1 scFv; also called 37-20-B03-sc09) scFv: DIQMTQSPASLSASVGDRVTITCQASQSIGTYLAWYQQKPGKPPKLLIYRAFILASGVPSRFSGSGSGTDFTLTISSLQPEDFATYYCQSNFYSDSTTIGPNAFGTGTKVTVLGGGGGSGGGGSGGGGSGGGGSEVQLVESGGGLVQPGGSLRLSCAASGFSFNSDYWIYWVRQAPGKGLEWIACIYGGSSGNTQYASWAQGRFTISRDNSKNTVYLQMNSLRAEDTAVYFCARGYVDYGGATDLWGQGTLVTVSS | – |
| – | – | – | – | – | – | – | 8.6 pM | 4.8e-05 s⁻¹ | 5.6e+06 M⁻¹ s⁻¹ | 6.5 pM | 3.4e-05 s⁻¹ | 5.2e+06 M⁻¹ s⁻¹ | 0.97 nM | 104% | no binding (tested: 180 nM) | PRO1392 (scFv, anti-PDL1 scFv (VL-linker-VH); also called 33-03-G02-sc18) scFv: DIQMTQSPSSLSASVGDRVTITCQASQSINDYLAWYQQKPGKAPKLLIYKASTLASGVPSRFSGSGSGTDFTLTISSLQPEDFATYYCQQGYIITDIDNVFGTGTKVTVLGGGGGSGGGGSGGGGSGGGGSQVQLQESGPGLVKPSETLSLTCKASGFSFSSGYDMCWVRQPPGKGLEWIACVVAGSVDITYYASWAKGRVTISKDSSKNQVSLKLSSVTAADTAVYYCARKDAYSDAFNLWGQGTLVTVSS | – |
